One may read the Km as the substrate concentration at which the rate is half of its maximum. One may read the kcat as the maximal rate divided by the concentration of active sites. Usually kcat/Km stands for the second-order rate constant that governs catalysis at low substrate concentration. In general, stoichiometry N refers to the number of molecules, sites or subunits per partner or assembly.

Substrate in data set [1]: NC(=O)c1ccc[n+]([C@@H]2O[C@H](COP(=O)(O)OP(=O)(O)OC[C@H]3O[C@@H](n4cnc5c(N)ncnc54)[C@H](O)[C@@H]3O)[C@@H](O)[C@H]2O)c1
Briefly: purified protein. The following applies: saturating DL-isocitrate, 35 mM Tris-HCl pH 7.5, […] MnCl2, 37 °C.

Substrate in data set [2]: O=C(O)CC(C(=O)O)C(O)C(=O)O
Briefly: purified protein. The following applies: saturating NAD+, 35 mM Tris-HCl pH 7.5, […] MnCl2, 37 °C.

Data set [3] concerns the molecule itself. The data set can be described thus: SEC; HiLoad 10/300 Superdex 200, 0.05 M potassium phosphate pH 7.0, 0.15 M NaCl, 0.01% NaN3, flow 0.5 ml/min; calibrated with ovalbumin, conalbumin, aldolase, ferritin, thyroglobulin; native mass estimated as 70 kDa against a 43 kDa subunit.

B1: SmIDH (Streptococcus mutans UA159) (protein)
chain: MAEKVSFEEGKLQVPDKPVIPYIEGDGVGQDIWKNAQIVFDKAIAKVYGGHKQVIWREVLAGKKAYNETGNWLPNETLEIIKTHLLAIKGPLETPVGGGIRSLNVALRQELDLFACVRPVRYFKGVPSPLKHPEKTAITIFRENTEDIYAGIEWNAGTAEVQKVINFLQDDMQVKKIRFPKSSSIGIKPISIEGSQRLIRAAIEYALANNLTKVTLVHKGNIQKFTEGGFRKWGYELAKREYAAELASGQLVVDDIIADNFLQQILLKPERFDVVALTNLNGDYASDALAAQVGGIGISPGANINYQTGHAIFEATHGTAPDIAGQDLANPSSVLLSGCMLFDYIGWSKVSDLIMKAVEKAIANGQVTIDFAKELGVEALTTRQFSEVLLTYL
Regarding B1, in the data set “purified protein [1]”, the Michaelis constant (Km) was found to be 154 µM, the kcat is 56 s⁻¹ and the kcat/Km was found to be 360000 M⁻¹ s⁻¹. Moreover, in the data set “purified protein [2]”, the Km amounted to 75 µM, the turnover number (kcat) stood at 124 s⁻¹ and the kcat/Km is 1.65e+06 M⁻¹ s⁻¹.

B2: NAD+-dependent isocitrate dehydrogenase of Streptococcus mutans (enzyme, UniProt Q59940 1-393, looked up)
chain: MAEKVSFEEGKLQVPDKPVIPYIEGDGVGQDIWKNAQIVFDKAIAKVYGGHKQVIWREVLAGKKAYNETGNWLPNETLEIIKTHLLAIKGPLETPVGGGIRSLNVALRQELDLFACVRPVRYFKGVPSPLKHPEKTAITIFRENTEDIYAGIEWNAGTAEVQKVINFLQDDMQVKKIRFPKSSSIGIKPISIEGSQRLIRAAIEYALANNLTKVTLVHKGNIQKFTEGGFRKWGYELAKREYAAELASGQLVVDDIIADNFLQQILLKPERFDVVALTNLNGDYASDALAAQVGGIGISPGANINYQTGHAIFEATHGTAPDIAGQDLANPSSVLLSGCMLFDYIGWSKVSDLIMKAVEKAIANGQVTIDFAKELGVEALTTRQFSEVLLTYL
notes: 399 residues per subunit with the tag; The C-terminal position of the His6 tag is read from the reverse primer R-Sm^icd (CTA + six GTG codons on the antisense strand); also called SmIDH; S. mutans IDH; not shown: His6, C-terminal, kept
Consider B2, for which the “stoichiometry N” value in data set [3] was 2.

Values taken from publication PMC3590139, “Isocitrate Dehydrogenase from Streptococcus mutans: Biochemical Properties and Evaluation of a Putative Phosphorylation Site at Ser102” (PLoS ONE, 2013).
